This is an account of results in the supplement of paper PMC9112550, “Optimization of the antimicrobial peptide Bac7 by deep mutational scanning” (BMC Biology, 2022).
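Further: peptides expressed intracellularly from a pBAD plasmid library in pooled LB shake-flask culture, induced with 0.3% L-arabinose, DNA abundance read by NGS, three biological replicates, DESeq2 with apeglm shrinkage.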

In the series the test system is Escherichia coli TOP10. In words: shrunken log2 fold change of peptide-encoding DNA abundance (4.5 h post-induction vs induction); higher = less antimicrobial activity (less host growth inhibition). The conditions noted are these: time post-induction: 4.5 h; library: site-saturation at positions 5, 18, 19, 20.
In the case of RRIRQRPPRLPRPRPRPFDDPRP, the “shrunken log2 fold change” value was -0.275.

Regarding RRIRLRPPRLPRPRPRPYHYPRP, the “shrunken log2 fold change” value is -0.16. The figure for RRIRGRPPRLPRPRPRPMTNPRP is 0.835. The figure for RRIRPRPPRLPRPRPRPDDHPRP is -0.0314; for RRIRNRPPRLPRPRPRPCCIPRP it is -0.00191. The figure for RRIRDRPPRLPRPRPRPIMMPRP is -0.232. Consider RRIRPRPPRLPRPRPRPFNTPRP, for which the “shrunken log2 fold change” value stood at 0.39.

As for RRIRCRPPRLPRPRPRPTYSPRP, the “shrunken log2 fold change” value was -1.01. In the case of RRIRMRPPRLPRPRPRPHVFPRP, the “shrunken log2 fold change” value is 0.0558. In the case of RRIRFRPPRLPRPRPRPVMRPRP, the “shrunken log2 fold change” value was found to be 0.518.

In the case of RRIRSRPPRLPRPRPRPWTFPRP, the “shrunken log2 fold change” value is -0.199.

RRIRHRPPRLPRPRPRPRAEPRP: the “shrunken log2 fold change” value worked out at 0.12.

As for RRIRPRPPRLPRPRPRPRAVPRP, the “shrunken log2 fold change” value was 1.68. The figure for RRIRVRPPRLPRPRPRPHCRPRP is 0.199; for RRIRHRPPRLPRPRPRPEKFPRP it is -0.0202; for RRIRFRPPRLPRPRPRPHEGPRP it is 0.0417. The figure for RRIRIRPPRLPRPRPRPSPLPRP is -0.499; for RRIRVRPPRLPRPRPRPQARPRP it is -0.109. The figure for RRIRVRPPRLPRPRPRPHYKPRP is -0.389. Take RRIRQRPPRLPRPRPRPVQNPRP: the “shrunken log2 fold change” value amounted to 0.0137. The figure for RRIRVRPPRLPRPRPRPCNDPRP is -0.437. As for RRIRLRPPRLPRPRPRPPDDPRP, the “shrunken log2 fold change” value came out at 0.397. As for RRIRVRPPRLPRPRPRPSTAPRP, the “shrunken log2 fold change” value was -0.0759. For RRIRLRPPRLPRPRPRPNYIPRP, the “shrunken log2 fold change” value was -0.301. The figure for RRIRVRPPRLPRPRPRPGDPPRP is 0.172; for RRIRCRPPRLPRPRPRPNNFPRP it is -0.493; for RRIRDRPPRLPRPRPRPPAEPRP it is 0.525.

Take RRIRQRPPRLPRPRPRPSFDPRP: the “shrunken log2 fold change” value amounted to 0.182.

As for RRIRPRPPRLPRPRPRPMTPPRP, the “shrunken log2 fold change” value is 0.165.

In the case of RRIRSRPPRLPRPRPRPTWQPRP, the “shrunken log2 fold change” value was found to be 0.0157. For RRIRLRPPRLPRPRPRPTCLPRP, the “shrunken log2 fold change” value is -0.255. The figure for RRIRFRPPRLPRPRPRPAPDPRP is 0.323; for RRIRVRPPRLPRPRPRPHYAPRP it is -0.0814; for RRIRWRPPRLPRPRPRPHDSPRP it is -0.122.

On to RRIRKRPPRLPRPRPRPVTYPRP, for which the “shrunken log2 fold change” value was -0.0821. The figure for RRIRDRPPRLPRPRPRPFAMPRP is -0.188.

Regarding RRIRFRPPRLPRPRPRPMPLPRP, the “shrunken log2 fold change” value is -0.417. The figure for RRIRDRPPRLPRPRPRPTTHPRP is 0.313.

For RRIRNRPPRLPRPRPRPYFHPRP, the “shrunken log2 fold change” value is -0.474. The figure for RRIRHRPPRLPRPRPRPINFPRP is -0.368; for RRIRWRPPRLPRPRPRPLTPPRP it is 0.412. On to RRIRMRPPRLPRPRPRPRCWPRP, for which the “shrunken log2 fold change” value worked out at 0.666.

Regarding RRIRDRPPRLPRPRPRPWAYPRP, the “shrunken log2 fold change” value was 0.0388.

On to RRIRTRPPRLPRPRPRPTNPPRP, for which the “shrunken log2 fold change” value is -0.374. As for RRIRCRPPRLPRPRPRPCAQPRP, the “shrunken log2 fold change” value was found to be 0.101.

As to RRIRFRPPRLPRPRPRPDRNPRP, the “shrunken log2 fold change” value is -0.182.

Take RRIRWRPPRLPRPRPRPKPPPRP: the “shrunken log2 fold change” value turned out to be 0.821. The figure for RRIRRRPPRLPRPRPRPVPMPRP is 0.452; for RRIRHRPPRLPRPRPRPWKAPRP it is 0.00938; for RRIRERPPRLPRPRPRPIIMPRP it is -0.119.

As for RRIRWRPPRLPRPRPRPISYPRP, the “shrunken log2 fold change” value was -0.0222. Take RRIRWRPPRLPRPRPRPFYNPRP: the “shrunken log2 fold change” value is -0.242. The figure for RRIRSRPPRLPRPRPRPLYWPRP is -0.154; for RRIRARPPRLPRPRPRPSSHPRP it is -0.471; for RRIRLRPPRLPRPRPRPTSRPRP it is 0.0104.

With RRIRLRPPRLPRPRPRPMMPPRP, the “shrunken log2 fold change” value is -0.174. For RRIRFRPPRLPRPRPRPFKLPRP, the “shrunken log2 fold change” value is -0.0106. The figure for RRIRYRPPRLPRPRPRPHMSPRP is -0.452; for RRIRSRPPRLPRPRPRPMEAPRP it is -0.00776.

For the sequence RRIRTRPPRLPRPRPRPGIKPRP, the “shrunken log2 fold change” value was -0.162. Take RRIRRRPPRLPRPRPRPFEDPRP: the “shrunken log2 fold change” value was -0.0157.

Consider RRIRKRPPRLPRPRPRPPNTPRP, for which the “shrunken log2 fold change” value was found to be 0.408.

Regarding RRIRTRPPRLPRPRPRPYHLPRP, the “shrunken log2 fold change” value is -0.805. The figure for RRIRERPPRLPRPRPRPIWSPRP is 0.0428; for RRIRHRPPRLPRPRPRPEHVPRP it is 0.0342. The figure for RRIRGRPPRLPRPRPRPGETPRP is 0.515. The figure for RRIRKRPPRLPRPRPRPIQWPRP is -0.00149. As for RRIRKRPPRLPRPRPRPDIPPRP, the “shrunken log2 fold change” value is -0.109. The figure for RRIRARPPRLPRPRPRPDICPRP is 0.307. The figure for RRIRDRPPRLPRPRPRPVRWPRP is 1.2.

Turning to RRIRKRPPRLPRPRPRPFVIPRP, the “shrunken log2 fold change” value was -0.363. The figure for RRIRIRPPRLPRPRPRPCTIPRP is -0.25; for RRIRVRPPRLPRPRPRPDHYPRP it is -0.149; for RRIRPRPPRLPRPRPRPPWWPRP it is 0.842. The figure for RRIRIRPPRLPRPRPRPPNEPRP is -0.365. The figure for RRIRDRPPRLPRPRPRPQVHPRP is -0.0385; for RRIRARPPRLPRPRPRPFNDPRP it is -0.147; for RRIRPRPPRLPRPRPRPHIFPRP it is -0.0487.

On to RRIRSRPPRLPRPRPRPVPWPRP, for which the “shrunken log2 fold change” value amounted to 0.212. The figure for RRIRFRPPRLPRPRPRPCKWPRP is -0.0168. For RRIRQRPPRLPRPRPRPTSQPRP, the “shrunken log2 fold change” value was -0.0461.

In the case of RRIRIRPPRLPRPRPRPKMVPRP, the “shrunken log2 fold change” value is -0.159. The figure for RRIRSRPPRLPRPRPRPRSMPRP is -0.0644; for RRIRQRPPRLPRPRPRPTKMPRP it is -0.239; for RRIRVRPPRLPRPRPRPNLNPRP it is -0.342.

In the case of RRIRGRPPRLPRPRPRPYPHPRP, the “shrunken log2 fold change” value is 0.103.

As for RRIRRRPPRLPRPRPRPYSFPRP, the “shrunken log2 fold change” value was -0.529. The figure for RRIRCRPPRLPRPRPRPPTWPRP is 0.0486; for RRIRYRPPRLPRPRPRPQLNPRP it is -1.15; for RRIRLRPPRLPRPRPRPVSHPRP it is 0.0743. The figure for RRIRMRPPRLPRPRPRPWKAPRP is 0.0518; for RRIRVRPPRLPRPRPRPNSNPRP it is -0.74. The figure for RRIRNRPPRLPRPRPRPWNKPRP is -0.184; for RRIRNRPPRLPRPRPRPRLAPRP it is 0.404. On to RRIRKRPPRLPRPRPRPTWAPRP, for which the “shrunken log2 fold change” value was 0.0687. The figure for RRIRDRPPRLPRPRPRPSTTPRP is 0.0945.

Take RRIRQRPPRLPRPRPRPYELPRP: the “shrunken log2 fold change” value is -0.695. The figure for RRIRRRPPRLPRPRPRPKIWPRP is 0.227. The figure for RRIRVRPPRLPRPRPRPNKHPRP is -0.189; for RRIRDRPPRLPRPRPRPHRFPRP it is 0.0062.

As to RRIRNRPPRLPRPRPRPHQNPRP, the “shrunken log2 fold change” value is -0.239. The figure for RRIRVRPPRLPRPRPRPCTHPRP is 0.0145. The figure for RRIRHRPPRLPRPRPRPKAAPRP is 0.0902. The figure for RRIRGRPPRLPRPRPRPDEHPRP is 1.5. Take RRIRARPPRLPRPRPRPDLMPRP: the “shrunken log2 fold change” value was 0.354. Consider RRIRMRPPRLPRPRPRPFKCPRP, for which the “shrunken log2 fold change” value was -0.0731. The figure for RRIRKRPPRLPRPRPRPHMCPRP is -0.066; for RRIRDRPPRLPRPRPRPRCRPRP it is -0.0929; for RRIRVRPPRLPRPRPRPHMKPRP it is -0.483. The figure for RRIRCRPPRLPRPRPRPPFKPRP is 0.313; for RRIRWRPPRLPRPRPRPDTNPRP it is -0.144.

Take RRIRRRPPRLPRPRPRPTKWPRP: the “shrunken log2 fold change” value is 0.0371. The figure for RRIRYRPPRLPRPRPRPFRMPRP is -0.0929. The figure for RRIRTRPPRLPRPRPRPVPEPRP is 0.323; for RRIRPRPPRLPRPRPRPIPYPRP it is -0.384; for RRIRCRPPRLPRPRPRPECVPRP it is 0.588. Regarding RRIRNRPPRLPRPRPRPEVGPRP, the “shrunken log2 fold change” value turned out to be 0.662.

RRIRTRPPRLPRPRPRPGCEPRP: the “shrunken log2 fold change” value is -0.117. In the case of RRIRLRPPRLPRPRPRPHSVPRP, the “shrunken log2 fold change” value is -0.0683. Regarding RRIRARPPRLPRPRPRPEPGPRP, the “shrunken log2 fold change” value stood at 0.98. The figure for RRIRDRPPRLPRPRPRPLGPPRP is 0.191; for RRIRWRPPRLPRPRPRPQGRPRP it is 0.64. The figure for RRIRSRPPRLPRPRPRPISWPRP is -0.186; for RRIRARPPRLPRPRPRPWNPPRP it is 0.126.

For RRIRNRPPRLPRPRPRPEIRPRP, the “shrunken log2 fold change” value stood at 0.126.
